Assay results published in paper PMC8329713, “The identification and structural analysis of potential 14-3-3 interaction sites on the bone regulator protein Schnurri-3” (Acta Crystallographica. Section F, Structural Biology …, 2021).
Non-standard residues stand in square brackets, D forms with d. No end group written: not given here. *: point of attachment. FITC = O=C1OC2(c3ccc(O)cc3Oc3cc(O)ccc32)c2ccc(NC(=S)*)cc21; pS = N[C@@H](COP(=O)(O)O)C(=O)O; Ahx = NCCCCCC(=O)O

Columns and labels:
Experiment in all cases: fluorescence polarisation; 14-3-3 isoforms (full length) serially diluted twofold in the presence of 10 nM FITC-labelled peptide; 50 mM Tris pH 7.5, 150 mM NaCl, 5 mM MgCl2, 0.05% Tween-20 (no reducing agent listed); one-site specific binding model
Details in all cases: both partners purified
[1] = biological target: T1, 14-3-3γ (full length) (human, UniProt P61981 1-247)
T1 construct: 14-3-3 protein gamma, human, full length; Expressed from a pPRoeX-Htb vector; also called 14-3-3 isoform γ; source: E. coli NiCo21(DE3), purified (nickel column, TEV cleavage, second nickel column, SEC)
T1 sequence (looked up): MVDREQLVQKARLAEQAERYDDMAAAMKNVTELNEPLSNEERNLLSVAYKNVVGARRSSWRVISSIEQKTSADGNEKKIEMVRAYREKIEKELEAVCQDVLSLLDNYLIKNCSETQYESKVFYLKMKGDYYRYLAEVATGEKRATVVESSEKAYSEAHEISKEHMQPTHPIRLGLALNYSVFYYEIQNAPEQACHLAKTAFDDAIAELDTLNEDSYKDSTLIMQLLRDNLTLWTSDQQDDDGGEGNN

[2] = biological target: T2, 14-3-3η (full length) (human, UniProt Q04917 1-246)
T2 construct: 14-3-3 protein eta, human, full length; Expressed from a pPRoeX-Htb vector; also called 14-3-3 isoform η; source: E. coli NiCo21(DE3), purified (nickel column, TEV cleavage, second nickel column, SEC)
T2 sequence (looked up): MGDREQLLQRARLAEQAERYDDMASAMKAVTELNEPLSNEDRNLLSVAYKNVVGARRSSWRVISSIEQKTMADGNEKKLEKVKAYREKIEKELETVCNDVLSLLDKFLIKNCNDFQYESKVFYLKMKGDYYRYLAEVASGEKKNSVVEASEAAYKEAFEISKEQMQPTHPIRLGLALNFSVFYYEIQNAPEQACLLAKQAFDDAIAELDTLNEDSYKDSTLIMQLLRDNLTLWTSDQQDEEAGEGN

[3] = biological target: T3, 14-3-3ɛ (full length) (human, UniProt P62258 1-255)
T3 construct: 14-3-3 protein epsilon, human, full length; Expressed from a pPRoeX-Htb vector; also called 14-3-3 isoform ɛ; source: E. coli NiCo21(DE3), purified (nickel column, TEV cleavage, second nickel column, SEC)
T3 sequence (looked up): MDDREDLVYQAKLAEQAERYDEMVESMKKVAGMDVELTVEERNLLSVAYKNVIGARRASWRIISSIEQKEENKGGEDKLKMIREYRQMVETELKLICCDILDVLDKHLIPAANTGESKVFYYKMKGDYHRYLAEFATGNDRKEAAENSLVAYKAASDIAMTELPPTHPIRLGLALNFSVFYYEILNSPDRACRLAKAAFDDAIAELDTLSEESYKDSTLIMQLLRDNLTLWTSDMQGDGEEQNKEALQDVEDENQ

[4] = biological target: T4, 14-3-3τ (full length) (human, UniProt P27348 1-245)
T4 construct: 14-3-3 protein theta (tau), human, full length; Expressed from a pPRoeX-Htb vector; also called 14-3-3 isoform τ; source: E. coli NiCo21(DE3), purified (nickel column, TEV cleavage, second nickel column, SEC)
T4 sequence (looked up): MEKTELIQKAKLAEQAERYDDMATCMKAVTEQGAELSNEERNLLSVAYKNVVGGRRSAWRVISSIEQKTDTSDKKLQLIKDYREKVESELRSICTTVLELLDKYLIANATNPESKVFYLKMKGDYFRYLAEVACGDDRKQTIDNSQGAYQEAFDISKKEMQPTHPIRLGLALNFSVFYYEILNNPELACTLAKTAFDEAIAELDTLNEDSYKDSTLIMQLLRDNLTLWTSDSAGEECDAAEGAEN

[5] = biological target: T5, 14-3-3ζ (full length) (human, UniProt P63104 1-245)
T5 construct: 14-3-3 protein zeta/delta, human, full length; Expressed from a pPRoeX-Htb vector; also called 14-3-3 isoform ζ; source: E. coli NiCo21(DE3), purified (nickel column, TEV cleavage, second nickel column, SEC)
T5 sequence (looked up): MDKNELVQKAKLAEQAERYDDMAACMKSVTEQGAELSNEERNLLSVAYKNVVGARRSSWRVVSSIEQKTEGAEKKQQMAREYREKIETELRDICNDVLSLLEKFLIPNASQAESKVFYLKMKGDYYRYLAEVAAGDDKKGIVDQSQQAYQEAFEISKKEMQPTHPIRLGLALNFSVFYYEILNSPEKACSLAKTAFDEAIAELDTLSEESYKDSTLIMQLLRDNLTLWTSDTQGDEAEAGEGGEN

[6] = biological target: T6, 14-3-3β (full length) (human, UniProt P31946 1-246)
T6 construct: 14-3-3 protein beta/alpha, human, full length; Expressed from a pPRoeX-Htb vector; also called 14-3-3 isoform β; source: E. coli NiCo21(DE3), purified (nickel column, TEV cleavage, second nickel column, SEC)
T6 sequence (looked up): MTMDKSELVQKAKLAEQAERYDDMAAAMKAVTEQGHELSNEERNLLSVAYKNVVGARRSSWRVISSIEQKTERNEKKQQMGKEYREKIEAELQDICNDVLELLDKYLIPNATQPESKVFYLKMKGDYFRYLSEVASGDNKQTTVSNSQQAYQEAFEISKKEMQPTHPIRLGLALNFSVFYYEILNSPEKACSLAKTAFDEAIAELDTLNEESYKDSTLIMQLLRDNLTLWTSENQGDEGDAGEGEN

B1: SHN3pS542 peptide, N-terminally FITC-Ahx-labelled (peptide)
peptide: {FITC-Ahx}-LLRSH[pS]MPSAAC
modifications: also: phosphoserine at 542, position not mapped
notes: Schnurri-3 (SHN3, transcription factor HIVEP3), human, 12-mer around phosphorylated Ser542; also called SHN3pS542-FITC; the FITC-labelled form; source: synthetic peptide, bought: GenScript (purity >95%)
Kd [1]: 0.78 ± 0.05 µM | Kd [2]: 0.69 ± 0.06 µM | binding result [3]: binds | binding result [4]: binds | binding result [5]: binds | binding result [6]: binds
